Experimental data as given in patent US20180057581A1 (MorphoSys, published 2018).

Experiments:
[1] = target: T1, human cell-surface M-CSF on stably transfected CHO cells (human, UniProt P09603 33-554); assay: FACS, CHO cells stably transfected with M-CSF (n = 3)
T1 construct: also called csM-CSF
T1 sequence: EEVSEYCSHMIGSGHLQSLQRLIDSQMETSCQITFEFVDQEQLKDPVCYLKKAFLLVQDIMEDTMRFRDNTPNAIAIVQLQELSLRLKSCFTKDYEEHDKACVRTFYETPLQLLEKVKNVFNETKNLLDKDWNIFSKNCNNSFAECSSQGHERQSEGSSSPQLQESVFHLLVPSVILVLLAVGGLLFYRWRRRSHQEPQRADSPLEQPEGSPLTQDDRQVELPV

[2] = target: T2, Recombinant human sgM-CSF (human, UniProt P09603 33-255); assay: MSD receptor binding inhibition: 12.5 pM human sgM-CSF preincubated with antibody, binding to coated human CSF1-R-Fc
T2 construct: also called human secreted glycosylated M-CSF; Human M-CSF
T2 sequence: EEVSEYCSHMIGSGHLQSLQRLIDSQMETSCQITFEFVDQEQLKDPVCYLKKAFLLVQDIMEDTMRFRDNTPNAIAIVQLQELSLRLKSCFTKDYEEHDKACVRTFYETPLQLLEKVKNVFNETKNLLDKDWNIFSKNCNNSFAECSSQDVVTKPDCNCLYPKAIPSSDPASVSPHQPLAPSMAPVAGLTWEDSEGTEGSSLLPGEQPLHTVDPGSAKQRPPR
Protocol: (§1) Complexes were then transferred to 384 well MSD plates coated with 2 μg/ml of the corresponding receptor. Plates were then washed and incubated with the streptavidin/ECL conjugate for 2 h with shaking at room temperature. 35 μl MSD read buffer T with surfactant was then added per well and subsequently measured using MSD Sector Imager 6000.

[3] = target: T3, Recombinant cynomolgus monkey sgM-CSF (cynomolgus (Macaca fascicularis), UniProt P09603 33-255 (human entry), limits assumed); assay: MSD receptor binding inhibition: 12.5 pM cynomolgus sgM-CSF preincubated with antibody, binding to coated human CSF1-R-Fc
T3 construct: used also where only 'cynomolgus M-CSF' is printed (ELISA result, SET); also called cynomolgus sgM-CSF; cyno sgM-CSF
T3 chain: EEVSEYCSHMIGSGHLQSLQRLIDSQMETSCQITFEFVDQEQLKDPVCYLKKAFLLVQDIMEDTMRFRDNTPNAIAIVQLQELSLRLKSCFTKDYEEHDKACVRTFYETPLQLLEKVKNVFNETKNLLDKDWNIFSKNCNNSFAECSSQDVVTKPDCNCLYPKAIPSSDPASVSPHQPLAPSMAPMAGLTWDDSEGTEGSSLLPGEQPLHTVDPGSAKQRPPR
Protocol: as §1

[4] = target: T2, Recombinant human sgM-CSF; assay: cell-based or functional assay
[5] = target: T3, Recombinant cynomolgus monkey sgM-CSF; assay: cell-based or functional assay
human M-CSF [6] = target: T4, human M-CSF (human, UniProt P09603 33-255, limits assumed); assay: ELISA
T4 construct: also called M-CSF (human); CSF-1
T4 sequence: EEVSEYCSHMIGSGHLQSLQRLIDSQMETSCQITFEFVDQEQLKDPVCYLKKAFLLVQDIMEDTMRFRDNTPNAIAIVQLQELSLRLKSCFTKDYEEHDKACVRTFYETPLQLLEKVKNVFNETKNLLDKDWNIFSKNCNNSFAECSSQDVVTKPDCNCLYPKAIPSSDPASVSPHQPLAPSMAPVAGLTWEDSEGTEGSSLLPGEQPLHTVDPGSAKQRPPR
Protocol: (§2) BSA was used as a negative control substrate.
(§3) After blocking of plates with 5% skim milk powder in PBS, Fab-containing E. coli lysates, IgG-containing cell culture supernatants or purified IgG or Fab proteins were added. Binding of Fabs or IgGs was detected by F(ab)₂ specific goat anti-human IgG conjugated to alkaline phosphatase (Dianova Cat# 109-055-097; diluted 1:5000) using Attophos fluorescence substrate (Roche, #11681982001). Fluorescence emission at 535 nm was recorded with excitation at 430 nm.

[7] = target: T3, Recombinant cynomolgus monkey sgM-CSF; assay: ELISA
Protocol: as §2, §3

human M-CSF [8] = target: T4, human M-CSF; assay: soluble equilibrium titration (SET), Fab, monovalent
Protocol: The monovalent affinity of the antibodies of the present disclosure was determined by soluble equilibrium titration (Haenel et al. (2005) Anal Biochem 339, 182-4).

B1: 8.10.3F, IgG2 (antibody, V domains shown)
VH: EVQLVESGGGLVQPGGSLRLSCAASGFTFSSFSMTWVRQAPGKGLEWVSYISSRSSTISYADSVKGRFTISRDNAKNSLYLQMNSLRDEDTAVYYCARDPLLAGATFFDYWGQGTLVTVSS
VL: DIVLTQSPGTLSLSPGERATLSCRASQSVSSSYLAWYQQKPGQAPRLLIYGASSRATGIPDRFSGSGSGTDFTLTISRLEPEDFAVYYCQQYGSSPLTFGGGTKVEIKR
notes: tested as IgG2; also called 8.10.F3
EC50 [1]: 23.2 nM | IC50 [2]: 0.0314 nM | IC50 [3]: 0.0207 nM | IC50, inhibition of M-NFS-60 proliferation induced by recombinant human M-CSF (9.5 pM) [4]: 71.1 pM | IC50, inhibition of M-NFS-60 proliferation induced by recombinant cynomolgus M-CSF (9.5 pM) [5]: 84.6 pM

B2: 8.10.3F, IgG1_D265A (antibody, V domains shown)
VH: EVQLVESGGGLVQPGGSLRLSCAASGFTFSSFSMTWVRQAPGKGLEWVSYISSRSSTISYADSVKGRFTISRDNAKNSLYLQMNSLRDEDTAVYYCARDPLLAGATFFDYWGQGTLVTVSS
VL: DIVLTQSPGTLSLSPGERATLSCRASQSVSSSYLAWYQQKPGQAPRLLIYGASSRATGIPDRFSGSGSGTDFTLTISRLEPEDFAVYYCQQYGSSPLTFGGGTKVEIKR
notes: Prior art antibody; tested as IgG1 with D265A in the Fc (EU index); also called 8.10.F3
EC50 [1]: 8.9 nM | IC50 [2]: 0.0192 nM | IC50 [3]: 0.0146 nM | IC50, inhibition of M-NFS-60 proliferation induced by recombinant human M-CSF (9.5 pM) [4]: 14.9 pM | IC50, inhibition of M-NFS-60 proliferation induced by recombinant cynomolgus M-CSF (9.5 pM) [5]: 16.5 pM

B3: Madeleine (format not stated) (antibody, V domains shown)
VH: QVQLQQSGPGLVKPSQTLSLTCAISGDSVSSNSAAWNWIRQSPSRGLEWLGRTYYRSKWKKEYAQSVKSRITINPDTSKNQFSLQLNSVTPEDTAVYYCARDRYYYSAFDYWGQGTLVTVSS
VL: QSALTQPASVSGSPGQSITISCTGTSSDVGGYNSVSWYQQHPGKAPKLMIYAVSNRPSGVSNRFSGSKSGNTASLTISGLQAEDEADYYCASYDERFTRVFGGGTKLTVLG
ELISA fluorescence units (human M-CSF [6]): > 35000 units | ELISA fluorescence units [7]: > 35000 units

B4: Caline (format not stated) (antibody, V domains shown)
VH: QVQLQQSGPGLVKPSQTLSLTCAISGDSVSSNSAAWNWIRQSPSRGLEWLGRTYYRSKWKHEYAMSVKSRITINPDTSKNQFSLQLNSVTPEDTAVYYCARDRYYYSAFDYWGQGTLVTVSS
VL: QSALTQPASVSGSPGQSITISCTGTSSDVGGYNSVSWYQQHPGKAPKLMIYAVSNRPSGVSNRFSGSKSGNTASLTISGLQAEDEADYYCASYDERFTRVFGGGTKLTVLG
ELISA fluorescence units (human M-CSF [6]): > 35000 units | ELISA fluorescence units [7]: > 35000 units

B5: Celine (format not stated) (antibody, V domains shown)
VH: QVQLQQSGPGLVKPSQTLSLTCAISGDSVSTSSAAWNWIRQSPSRGLEWLGRTYYRSKWKHEYAVSVKSRITINPDTSKNQFSLQLNSVTPEDTAVYYCARDRYYYSAFDYWGQGTLVTVSS
VL: QSALTQPASVSGSPGQSITISCTGTSSDVGGYNSVSWYQQHPGKAPKLIIYAVSNRPSGVSNRFSGSKSGNTASLTISGLQAEDEADYYCASYDERFTRVFGGGTKLTVLG
ELISA fluorescence units (human M-CSF [6]): > 35000 units | ELISA fluorescence units [7]: > 35000 units

B6: Laurine (format not stated) (antibody, V domains shown)
VH: QVQLQQSGPGLVKPSQTLSLTCAISGDSVSSNSAAWNWIRQSPSRGLEWLGRTYYRSKWKKEYAQSVKSRITINPDTSKNQFSLQLNSVTPEDTAVYYCARDRYYYSAFDYWGQGTLVTVSS
VL: DIALTQPASVSGSPGQSITISCTGTSSDVGGYNSVSWYQQHPGKAPKLMIYAVSNRPSGVSNRFSGSKSGNTASLTISGLQAEDEADYYCASYDERFTRVFGGGTKLTVLG
ELISA fluorescence units (human M-CSF [6]): > 35000 units | ELISA fluorescence units [7]: > 35000 units

B7: Maelle (format not stated) (antibody, V domains shown)
VH: QVQLQQSGPGLVKPSQTLSLTCAISGESVSTSSAAWNWIRQSPSRGLEWLGRTYYRSKWKKEYAQSVKSRITINPDTSKNQFSLQLNSVTPEDTAVYYCARDRYYYSAFDYWGQGTLVTVSS
VL: QSALTQPASVSGSPGQSITISCTGTSSDVGGYNSVSWYQQHPGKAPKLIIYAVSNRPSGVSNRFSGSKSGNTASLTISGLQAEDEADYYCASYDERFTRVFGGGTKLTVLG
ELISA fluorescence units (human M-CSF [6]): > 35000 units | ELISA fluorescence units [7]: > 35000 units

B8: Meriem (format not stated) (antibody, V domains shown)
VH: QVQLQQSGPGLVKPSQTLSLTCAISGDSVSTSSAAWNWIRQSPSRGLEWLGRTYYRSKWKKEYAQSVKSRITINPDTSKNQFSLQLNSVTPEDTAVYYCARDRYYYSAFDYWGQGTLVTVSS
VL: QSALTQPASVSGSPGQSITISCTGTSSDVGGYNSVSWYQQHPGKAPKLIIYAVSNRPSGVSNRFSGSKSGNTASLTISGLQAEDEADYYCASYDERFTRVFGGGTKLTVLG
ELISA fluorescence units (human M-CSF [6]): > 35000 units | ELISA fluorescence units [7]: > 35000 units

B9: Blanche (format not stated) (antibody, V domains shown)
VH: QVQLQQSGPGLVKPSQTLSLTCAISGDSVSSNSAAWNWIRQSPSRGLEWLGRTYYRSKWKHEYAMSVKSRITINPDTSKNQFSLQLNSVTPEDTAVYYCARDRYYYSAFDYWGQGTLVTVSS
VL: DIALTQPASVSGSPGQSITISCTGTSSDVGGYNSVSWYQQHPGKAPKLMIYAVSNRPSGVSNRFSGSKSGNTASLTISGLQAEDEADYYCASYDERFTRVFGGGTKLTVLG
ELISA fluorescence units (human M-CSF [6]): > 35000 units | ELISA fluorescence units [7]: > 35000 units

B10: Satine, Fab (Fab, V domains shown)
VH: EVQLVESGGGLVKPGGSLRLSCAASGFTFSIYAMSWVRQAPGKGLEWVGRIKSNADGGTTEYAAPVKGRFTISRDDSKNTLYLQMNSLKTEDTAVYYCARMRYYSDLYFDPWGQGTLVTVSS
VL: SYELTQPPSVSVSPGQTASITCSGDKLGQKYVSWYQQKPGQSPVLVISQDRKRPSGIPERFSGSNSGNTATLTISGTQAEDEADYYCQTWTHLQWVFGGGTKLTVLG
Kd (human M-CSF [8]): < 0.002 nM

B11: HeRX1-10G1, Fab (Fab, V domains shown)
VH: QVQLQESGPGLVKPSQTLSLTCTVSDYSITSDYAWNWIRQFPGKGLEWMGYISYSGSTSYNPSLKSRITISRDTSKNQFSLQLNSVTAADTAVYYCASFDYAHAMDYWGQGTTVTVSS
VL: DIVLTQSPAFLSVTPGEKVTFTCQASQSIGTSIHWYQQKTDQAPKLLIKYASESISGIPSRFSGSGSGTDFTLTISSVEAEDAADYYCQQINSWPTTFGGGTKLEIKR
notes: Prior art antibody
Kd (human M-CSF [8]): > 1 nM

B12: 8.10.3F, Fab (Fab, V domains shown)
VH: EVQLVESGGGLVQPGGSLRLSCAASGFTFSSFSMTWVRQAPGKGLEWVSYISSRSSTISYADSVKGRFTISRDNAKNSLYLQMNSLRDEDTAVYYCARDPLLAGATFFDYWGQGTLVTVSS
VL: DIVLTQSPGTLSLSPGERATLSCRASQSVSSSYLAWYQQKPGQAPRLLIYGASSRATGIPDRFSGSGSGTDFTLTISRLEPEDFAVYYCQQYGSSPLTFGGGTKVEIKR
notes: Prior art antibody; also called 8.10.F3
Kd (human M-CSF [8]): 0.038 nM

B13: Romaine (format not stated) (antibody, V domains shown)
VH: EVQLVESGGGLVKPGGSLRLSCAASGFTFSIYAMSWVRQAPGKGLEWVGRIKSNADGGTTEYAAPVKGRFTISRDDSKNTLYLQMNSLKTEDTAVYYCARMRYYSDLYFDPWGQGTLVTVSS
VL: DIELTQPPSVSVSPGQTASITCSGDAIGSKYVHWYQQKPGQAPVLVISKDNKRPSGIPERFSGSNSGNTATLTISGTQAEDEADYYCQTATVSSYWWVFGGGTKLTVLG
ELISA fluorescence units (human M-CSF [6]): > 35000 units | ELISA fluorescence units [7]: > 35000 units

B14: Satine (format not stated) (antibody, V domains shown)
VH: EVQLVESGGGLVKPGGSLRLSCAASGFTFSIYAMSWVRQAPGKGLEWVGRIKSNADGGTTEYAAPVKGRFTISRDDSKNTLYLQMNSLKTEDTAVYYCARMRYYSDLYFDPWGQGTLVTVSS
VL: SYELTQPPSVSVSPGQTASITCSGDKLGQKYVSWYQQKPGQSPVLVISQDRKRPSGIPERFSGSNSGNTATLTISGTQAEDEADYYCQTWTHLQWVFGGGTKLTVLG
ELISA fluorescence units (human M-CSF [6]): > 35000 units | ELISA fluorescence units [7]: > 35000 units

B15: Servane (format not stated) (antibody, V domains shown)
VH: EVQLVESGGGLVKPGGSLRLSCAASGFTFSTYAISWVRQAPGKGLEWVGFIKSKHNSGTTEYAAPVKGRFTISRDDSKNTLYLQMNSLKTEDTAVYYCARMRYYSDLYFDPWGQGTLVTVSS
VL: SYELTQPPSVSVSPGQTASITCSGDKLGQKYVSWYQQKPGQSPVLVISQDRKRPSGIPERFSGSNSGNTATLTISGTQAEDEADYYCQTWTHLQWVFGGGTKLTVLG
ELISA fluorescence units (human M-CSF [6]): > 35000 units | ELISA fluorescence units [7]: > 35000 units
